{"source": "patent US20220306758A1", "about": "(Regeneron, published 2022)", "binders": {"B1": {"name": "REGN5458 (bsAb25441D), anti-BCMA x anti-CD3 bispecific antibody (bispecific antibody, V domains shown)", "VH 1": "EVQLVESGGGLVQPGGSLRLSCAASGFTFSNFWMTWVRQAPGKGLEWVANMNQDGSEKYYVDSVKGRFTISRDNAKSSLYLQMNSLRAEDTAVYYCARDREYCISTSCYDDFDYWGQGTLVTVSS", "VH 2": "EVQLVESGGGLVQPGRSLRLSCAASGFTFDDYSMHWVRQAPGKGLEWVSGISWNSGSKGYADSVKGRFTISRDNAKNSLYLQMNSLRAEDTALYYCAKYGSGYGKFYHYGLDVWGQGTTVTVSS", "VL": "not shown", "notes": "Two different heavy chains paired with a common light chain; human Fc (captured by anti-human Fc in SPR); also called bsAb25441D9; mAb25441D"}, "B2": {"name": "REGN5459 (bsAb25442D), anti-BCMA x anti-CD3 bispecific antibody (bispecific antibody, V domains shown)", "VH 1": "B1 VH 1", "VH 2": "B1 VH 2 with K58I, H108Y, L111M", "VL": "not shown", "notes": "also called mAb25442D; mAb25442D-A647"}}, "key": {"[1]": {"target": "T1, human BCMA on cells (endogenous, on multiple myeloma and lymphoma cell lines) (human, UniProt Q02223 1-184)", "T1 sequence": "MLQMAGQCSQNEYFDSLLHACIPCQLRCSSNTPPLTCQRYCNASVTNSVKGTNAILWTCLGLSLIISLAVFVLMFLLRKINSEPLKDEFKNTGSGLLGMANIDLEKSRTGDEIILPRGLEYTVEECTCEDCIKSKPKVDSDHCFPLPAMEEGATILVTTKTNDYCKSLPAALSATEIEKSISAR", "test": "cell-based or functional assay"}, "[2]": {"target": "T1, human BCMA on cells (endogenous, on …)", "test": "flow cytometry on MM.1S cells, Alexa647 conjugate", "method": "(§1) Cells were then washed and fixed for 25 mins at 4° C. using a 50% solution of BD Cytofix (BD, Cat #554655) diluted in PBS. […] After gating for live cells and single cells, the mean fluorescent intensity (MFI) was determined, and MFI values were plotted in Graphpad Prism using a four-parameter logistic equation over a 10-point response curve to calculate EC₅₀s. The zero condition for each dose-response curve is also included in the analysis as a continuation of the two-fold serial dilution and is represented as the lowest dose. The signal to noise (S/N) is determined by taking the ratio of the mAb25442D-A647 MFI to the Isotype-A647 MFI. (Table 13). The mAb25442D-A647 S/N ranged from 2 to 470 and the EC₅₀ values ranged from 27 to 83 nM. No detectable binding was observed on HEK293 cells."}, "[3]": {"target": "T1, human BCMA on cells (endogenous, on …)", "test": "flow cytometry on OPM-2 cells, Alexa647 conjugate", "method": "as §1"}, "[4]": {"target": "T1, human BCMA on cells (endogenous, on …)", "test": "flow cytometry on NCI-H929 cells, Alexa647 conjugate", "method": "as §1"}, "[5]": {"target": "T1, human BCMA on cells (endogenous, on …)", "test": "flow cytometry on RPMI-8226 cells, Alexa647 conjugate", "method": "as §1"}}, "note": "Substitutions are numbered along the chain they refer to."}
{"binder": "B1", "values": [{"measurement": "MFI fold change over cells incubated in media only, NCI-H929, 18 h with 67 nM antibody, then stained with the same antibody", "setting": "[1]", "result": 2, "unit": "fold"}, {"measurement": "MFI fold change over cells incubated in media only, NCI-H929, 18 h with 667 nM antibody, then stained with the same antibody", "setting": "[1]", "result": 3, "unit": "fold"}]}
{"binder": "B2", "values": [{"measurement": "EC50", "setting": "[2]", "result": 83, "unit": "nM"}, {"measurement": "EC50", "setting": "[3]", "result": 57, "unit": "nM"}, {"measurement": "EC50", "setting": "[4]", "result": 79, "unit": "nM"}, {"measurement": "EC50", "setting": "[5]", "result": 27, "unit": "nM"}]}
